Values of other authors as cited in publication PMC9157009, “Protein proximity networks and functional evaluation of the casein kinase 1 gamma family reveal unique roles for CK1γ3 in WNT signaling” (The Journal of Biological Chemistry, 2022).

Tested on: β-catenin-dependent transcription
Conditions: siRNA screen, BAR firefly luciferase reporter, ref Biechele et al

Average BAR firefly Luciferase (Raw) (raw signal per siRNA target): 104670
B1: MAGI1 (protein, UniProt Q96QZ7 1-1491, looked up)
Membrane-associated guanylate …: MSKVIQKKNHWTSRVHECTVKRGPQGELGVTVLGGAEHGEFPYVGAVAAVEAAGLPGGGEGPRLGEGELLLEVQGVRVSGLPRYDVLGVIDSCKEAVTFKAVRQGGRLNKDLRHFLNQRFQKGSPDHELQQTIRDNLYRHAVPCTTRSPREGEVPGVDYNFLTVKEFLDLEQSGTLLEVGTYEGNYYGTPKPPSQPVSGKVITTDALHSLQSGSKQSTPKRTKSYNDMQNAGIVHAENEEEDDVPEMNSSFTADSGEQEEHTLQETALPPVNSSIIAAPITDPSQKFPQYLPLSAEDNLGPLPENWEMAYTENGEVYFIDHNTKTTSWLDPRCLNKQQKPLEECEDDEGVHTEELDSELELPAGWEKIEDPVYGIYYVDHINRKTQYENPVLEAKRKKQLEQQQQQQQQQQQQQQQQQQQQTEEWTEDHSALVPPVIPNHPPSNPEPAREVPLQGKPFFTRNPSELKGKFIHTKLRKSSRGFGFTVVGGDEPDEFLQIKSLVLDGPAALDGKMETGDVIVSVNDTCVLGHTHAQVVKIFQSIPIGASVDLELCRGYPLPFDPDDPNTSLVTSVAILDKEPIIVNGQETYDSPASHSSKTGKVNGMKDARPSSPADVASNSSHGYPNDTVSLASSIATQPELITVHIVKGPMGFGFTIADSPGGGGQRVKQIVDSPRCRGLKEGDLIVEVNKKNVQALTHNQVVDMLVECPKGSEVTLLVQRGGLPVPKKSPKSQPLERKDSQNSSQHSVSSHRSLHTASPSHSTQVLPEFPPAEAQAPDQTDSSGQKKPDPFKIWAQSRSMYENRPMSPSPASGLSKGEREREINSTNFGECPIPDYQEQDIFLWRKETGFGFRILGGNEPGEPIYIGHIVPLGAADTDGRLRSGDELICVDGTPVIGKSHQLVVQLMQQAAKQGHVNLTVRRKVVFAVPKTENEVPSPASSHHSSNQPASLTEEKRTPQGSQNSLNTVSSGSGSTSGIGSGGGGGSGVVSTVVQPYDVEIRRGENEGFGFVIVSSVSRPEAGTTFAGNACVAMPHKIGRIIEGSPADRCGKLKVGDRILAVNGCSITNKSHSDIVNLIKEAGNTVTLRIIPGDESSNATLLTNAEKIATITTTHTPSQQGTQETRNTTKPKQESQFEFKAPQATQEQDFYTVELERGAKGFGFSLRGGREYNMDLYVLRLAEDGPAERCGKMRIGDEILEINGETTKNMKHSRAIELIKNGGRRVRLFLKRGDGSVPEYDPSSDRHGPATGPQGVPEVRAGPDRRQHPSLESSYPPDLHKSSPHGEKRAHARDPKGSREYSRQPNEHHTWNGTSRKPDSGACRPKDRAPEGRRDAQAERAAAANGPKRRSPEKRREGTRSADNTLERREKHEKRRDVSPERRRERSPTRRRDGSPSRRRRSLERLLEQRRSPERRRGGSPERRAKSTDRRRARSPERRRERSLDKRNREDRASHREREEANLKQDAGRSSRHPPEQRRRPYKECSTDLSI
Fold over control siRNA (fold over control siRNA): 3.957
